Results: patent US20250243292A1 (published 2025)
Read-outs that look alike come from different tables or passages of the source.

T1: CD24-GST fusion protein
T1 chain: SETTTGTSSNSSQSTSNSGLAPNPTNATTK


Key:
Test in all cases: competitive ELISA
[1] = biological target: T1, CD24-GST fusion protein
[2] = biological target: T1, CD24-GST fusion protein
[3] = biological target: T1, CD24-GST fusion protein

Binder | IC50 [1] | IC50 [2] | IC50 [3]
PP6368 (antibody, V domains shown) VH: EVKFEESGGGLVQPGGSIKLSCAASGVTFSEAWMDWVRQSPEKGLEWVAEIRDKPNSYVTYYAESVKGRFTISRDDSKSRVYLQMNNLRTEDTGIYYCTGAMDYWGQGTSVTVSS VL: DIVMTQTPLSLSVTIGQPASISCKSSQSLLYSNGKTYLNWLQQRPGQSPKRLIYQVSKLDPGIPDRFSGSGSETDFTLKISRVEAEDLGIYYCMQGTYLPWTFGGGTKLEIKR | 0.0299 µg/mL | – | –
PP6226 (antibody, V domains shown) VH: EVKFEESGGGLVQPGGSIKLSCAASGVTFSEAWMDWVRQSPEKGLEWVAEIRDKTKNYVTYYAESVKGRFTISRDDSKSRVYLQMNNLRTEDTGIYYCTGAMDYWGQGTSVTVSS VL: DIVMTQTPLSLSVTIGQPASISCKSSQSLLYSNGKTYLNWLQQRPGQSPKRLIYQVSKLDPGIPDRFSGSGSETDFTLKISRVEAEDLGIYYCLQGTSYPWTFGGGTKLEIKR | 0.0856 µg/mL | 0.0834 µg/mL | 0.0814 µg/mL
PP6230 (antibody, V domains shown) VH: EVKFEESGGGLVQPGGSIKLSCAASGVTFSEAWMDWVRQSPEKGLEWVAEIRDKSTNYVTYYAESVKGRFTISRDDSKSRVYLQMNNLRTEDTGIYYCTGAMDYWGQGTSVTVSS VL: DIVMTQTPLSLSVTIGQPASISCKSSQSLLYSNGKTYLNWLQQRPGQSPKRLIYQVSKLDPGIPDRFSGSGSETDFTLKISRVEAEDLGIYYCLQGTSYPWTFGGGTKLEIKR | – | – | 0.0589 µg/mL
PP6233 (antibody, V domains shown) VH: EVKFEESGGGLVQPGGSIKLSCAASGVTFSEAWMDWVRQSPEKGLEWVAEIRDKTKNYVTYYAESVKGRFTISRDDSKSRVYLQMNNLRTEDTGIYYCTGAMDYWGQGTSVTVSS VL: DIVMTQTPLSLSVTIGQPASISCKSSQSLLYSNGKTYLNWLQQRPGQSPKRLIYQVSKLDPGIPDRFSGSGSETDFTLKISRVEAEDLGIYYCMQGASLPWTFGGGTKLEIKR | – | – | 0.0372 µg/mL
PP6370 (antibody, V domains shown) VH: EVKFEESGGGLVQPGGSIKLSCAASGVTFSEAWMDWVRQSPEKGLEWVAEIRDKTKNYVTYYAESVKGRFTISRDDSKGRVYLQMNNLRTEDTGIYYCTGAMDYWGQGTSVTVSS VL: DIVMTQTPLSLSVTIGQPASISCKSSQSLLYSNGKTYLNWLQQRPGQSPKRLIYQVSKLDPGIPDRFSGSGSETDFTLKISRVEAEDLGIYYCMQGTYLPWTFGGGTKLEIKR | 0.0642 µg/mL | – | –
PP6371 (antibody, V domains shown) VH: EVKFEESGGGLVQPGGSIKLSCAASGVTFSEAWMDWVRQTPEKGLEWVAEIRDRETKYVTYYAESVKGRFTISRDDSKSRVYLQMNNLRTEDTGIYYCTGAMDYWGQGTSVTVSS VL: DIVMTQTPLSLSVTIGQPASISCKSSQSLLYSNGKTYLNWLQQRPGQSPKRLIYQVSKLDPGIPDRFSGSGSETDFTLKISRVEAEDLGIYYCMQGTSLPWTFGGGTKLEIKR | 0.0345 µg/mL | – | –
PP6369 (antibody, V domains shown) VH: EVKFEESGGGLVQPGGSIKLSCAASGVPFSGAWMDWVRQSPEKGLEWVAEIRDKTKNYVTYYAESVKGRFTISRDDSKSRVYLQMNNLRTEDTGIYYCTGAMDYWGQGTSVTVSS VL: DIVMTQTPLSLSVTIGQPASISCKSSQSLLYSNGKTYLNWLQQRPGQSPKRLIYQVSKLDPGIPDRFSGSGSETDFTLKISRVEAEDLGIYYCMQGTYLPWTFGGGTKLEIKR | 0.0611 µg/mL | – | –
PP6372 (antibody, V domains shown) VH: EVKFEESGGGLVQPGGSIKLSCAASGVTFSEAWMDWVRQSPEKGLEWVAEIRDKQNEYVTYYAESVKGRFTISRDDSKSRVYLQMNNLRTEDTGIYYCTGAMDYWGQGTSVTVSS VL: DIVMTQTPLSLSVTIGQPASISCKSSQSLLYSNGKTYLNWLQQRPGQSPKRLIYQVSKLDPGIPDRFSGSGSETDFTLKISRVEAEDLGIYYCMQGSSLPWTFGGGTKLEIKR | 0.0269 µg/mL | 0.0268 µg/mL | –
PP6234 (antibody, V domains shown) VH: EVKFEESGGGLVQPGGSIKLSCAASGVTFSEAWMDWVRQSPEKGLEWVAEIRDKTKNYVTYYAESVKGRFTISRDDSKSRVYLQMNNLRTEDTGIYYCTGAMDYWGQGTSVTVSS VL: DIVMTQTPLSLSVTIGQPASISCKSSQSLLYSNGKTYLNWLQQRPGQSPKRLIYQVSKLDPGTPDRFSGSGSETDFTLKISRVEAEDLGIYYCMQGASVPWTFGGGTKLEIKR | – | – | 0.0426 µg/mL
PP6373 (antibody, V domains shown) VH: EVKFEESGGGLVQPGGSIKLSCAASGVTFSEAWMDWVRQSPEKGLEWVAEIRDKPNSYVTYYAESVKGRFTISRDDSKSRVYLQMNNLRTEDTGIYYCTGAMDYWGQGTSVTVSS VL: DIVMTQTPLSLSVTIGQPASISCKSSQSLLYSNGKTYLNWLQQRPGQSPKRLIYQVSKLDPGIPDRFSGSGSETDFTLKISRVEAEDLGIYYCMQGSSLPWTFGGGTKLEIKR | – | 0.0207 µg/mL | –
PP6235 (antibody, V domains shown) VH: EVKFEESGGGLVQPGGSIKLSCAASGVAFSGAWMDWVRQSPEKGLEWVAEIRDKTKNYVTYYAESVKGRFTISRDDSKSRVYLQMNNLRTEDTGVYYCTGAMDYWGQGTSVTVSS VL: DIVMTQTPLSLSVTIGQPASISCKSSQSLLYSNGKTYLNWLQQRPGQSPKRLIYQVSKLDPGIPDRFSGSGSETDFTLKISRVEAEDLGIYYCMQGASLPWTFGGGTKLEIKR | 0.0419 µg/mL | 0.0415 µg/mL | 0.0411 µg/mL

Next, values leading:

IC50 [1] | IC50 [2] | IC50 [3] | Binder
– | – | 0.0713 µg/mL | PP6232 (antibody, V domains shown) VH: EVKFEESGGGLVQPGGSIKLSCAASGVTFSEAWMDWVRQSPEKGLEWVAEIRDKTKNYVTYYAESVKGRFTISRDDSKSRVYLQMNNLRTEDTGIYYCTGAMDYWGQGTSVTVSS VL: DIVMTQTPLSLSVTIGQPASISCKSSQSLLYSNGKTYLNWLQQRPGQSPKRLIYQVSKLDPGTPDRFSGSGSETDFTLKISRVEAEDLGIYYCMQGTSTPWTFGGGTKLEIKR
0.0336 µg/mL | – | – | PP6236 (antibody, V domains shown) VH: EVKFEESGGGLVQPGGSIKLSCAASGVTFSEAWMDWVRQSPEKGLEWVAEIRDNTTNYVTYYAESVKGRFTISRDDSKSRVYLQMNNLRTEDTGIYYCTGAMDYWGQGTSVTVSS VL: DIVMTQTPLSLSVTIGQPASISCKSSQSLLYSNGKTYLNWLQQRPGQSPKRLIYQVSKLDPGIPDRFSGSGSETDFTLKISRVEAEDLGIYYCMQGASLPWTFGGGTKLEIKR
– | 0.0249 µg/mL | – | PP6388 (antibody, V domains shown) VH: EVKFEESGGGLVQPGGSIKLSCAASGVTFSEAWMDWVRQTPEKGLEWVAEIRDRETKYVTYYAESVKGRFTISRDDSKSRVYLQMNNLRTEDTGIYYCTGAMDYWGQGTSVTVSS VL: DIVMTQTPLSLSVTIGQPASISCKSSQSLLYSNGKTYLNWLQQRPGQSPKRLIYQVSKLDPGIPDRFSGSGSETDFTLKISRVEAEDLGIYYCMQGTYLPWTFGGGTKLEIKR
– | – | 0.0768 µg/mL | PP6231 (antibody, V domains shown) VH: EVKFEESGGGLVQPGGSIKLSCAASGVTFSEAWMDWVRQSPEKGLEWVAEIRDNTTNYVTYYAESVKGRFTISRDDSKSRVYLQMNNLRTEDTGIYYCTGAMDYWGQGTSVTVSS VL: DIVMTQTPLSLSVTIGQPASISCKSSQSLLYSNGKTYLNWLQQRPGQSPKRLIYQVSKLDPGIPDRFSGSGSETDFTLKISRVEAEDLGIYYCLQGTSYPWTFGGGTKLEIKR
– | – | 0.0888 µg/mL | PP6228 (antibody, V domains shown) VH: EVKFEESGGGLVQPGGSIKLSCAASGVAFSGAWMDWVRQSPEKGLEWVAEIRDKTKNYVTYYAESVKGRFTISRDDSKSRVYLQMNNLRTEDTGVYYCTGAMDYWGQGTSVTVSS VL: DIVMTQTPLSLSVTIGQPASISCKSSQSLLYSNGKTYLNWLQQRPGQSPKRLIYQVSKLDPGIPDRFSGSGSETDFTLKISRVEAEDLGIYYCLQGTSYPWTFGGGTKLEIKR
– | 0.0284 µg/mL | – | PP6387 (antibody, V domains shown) VH: EVKFEESGGGLVQPGGSIKLSCAASGVTFSEAWMDWVRQSPEKGLEWVAEIRDKTKNYVTYYAESVKGRFTISRDDSKGRVYLQMNNLRTEDTGIYYCTGAMDYWGQGTSVTVSS VL: DIVMTQTPLSLSVTIGQPASISCKSSQSLLYSNGKTYLNWLQQRPGQSPKRLIYQVSKLDPGIPDRFSGSGSETDFTLKISRVEAEDLGIYYCMQGSSLPWTFGGGTKLEIKR
